Consider one variant from IntAct's records for PubMed 21822214.

To fix the notation:
B1: B-cell linker protein (Homo sapiens), Q8WV28 (parent)
chain: MDKLNKITVPASQKLRQLQKMVHDIKNNEGGIMNKIKKLKVKAPPSVPRRDYASESPADEEEQWSDDFDSDYENPDEHSDSEMYVMPAEENADDSYEPPPVEQETRPVHPALPFARGEYIDNRSSQRHSPPFSKTLPSKPSWPSEKARLTSTLPALTALQKPQVPPKPKGLLEDEADYVVPVEDNDENYIHPTESSSPPPEKAPMVNRSTKPNSSTPASPPGTASGRNSGAWETKSPPPAAPSPLPRAGKKPTTPLKTTPVASQQNASSVCEEKPIPAERHRGSSHRQEAVQSPVFPPAQKQIHQKPIPLPRFTEGGNPTVDGPLPSFSSNSTISEQEAGVLCKPWYAGACDRKSAEEALHRSNKDGSFLIRKSSGHDSKQPYTLVVFFNKRVYNIPVRFIEATKQYALGRKKNGEEYFGSVAEIIRNHQHSPLVLIDSQNNTKDSTRLKYAVKVS

Variants of B1 are the subject of the experiment. The settings on record: with cd2ap_human CD2AP.
MDKLNKITVPASQKLRQLQKMVHDIKNNEGGIMNKIKKLKVKAPPSVPARDYASESPADEEEQWSDDFDSDYENPDEHSDSEMYVMPAEENADDSYEPPPVEQETRPVHPALPFARGEYIDNRSSQRHSPPFSKTLPSKPSWPSEKARLTSTLPALTALQKPQVPPKPKGLLEDEADYVVPVEDNDENYIHPTESSSPPPEKAPMVNRSTKPNSSTPASPPGTASGRNSGAWETKSPPPAAPSPLPAAGKKPTTPLKTTPVASQQNASSVCEEKPIPAERHRGSSHRQEAVQSPVFPPAQKQIHQKPIPLPAFTEGGNPTVDGPLPSFSSNSTISEQEAGVLCKPWYAGACDRKSAEEALHRSNKDGSFLIRKSSGHDSKQPYTLVVFFNKRVYNIPVRFIEATKQYALGRKKNGEEYFGSVAEIIRNHQHSPLVLIDSQNNTKDSTRLKYAVKVS [R49A;R247A;R312A]: the “effect of a mutation on the interaction” value is reported as “disrupting interaction”.
